From US20090226456A1 (published 2009) come the findings set out here.

B1: Full-length human TR6 (without Fc) (receptor)
chain: VAETPTYPWRDAETGERLVCAQCPPGTFVQRPCRRDSPTTCGPCPPRHYTQFWNYLERCRYCNVLCGEREEEARACHATHNRACRCRTGFFAHAGFCLEHASCPPGAGVIAPGTPSQNTQCQPCPPGTFSASSSSSEQCQPHRNCTALGLALNVPGSSSHDTLCTSCTGFPLSTRVPGAEECERAVIDFVAFQDISIKRLQRLLQALEAPEGWGPTPRAGRAALQLKLRRRLTELLGAQDGALLVRLLQALRVARMPGLERSVRERFLPVH
notes: also called TR6-non-Fc; TR6 non-Fc
B2: TR2-Fc (extracellular domain of TR2, aa 1-192, fused to the Fc domain of human IgG1) (Fc fusion)
chain: LPSCKEDEYPVGSECCPKCSPGYRVKEACGELTGTVCEPCPPGTYIAHLNGLSKCLQCQMCDPAMGLRASRNCSRTENAVCGCSPGHFCIVQDGDHCAACRAYATSSPGQRVQKGGTESQDTLCQNCPPGTFSPNGTLEECQHQTKCSWLVTKA
notes: The range is as cloned; also called HveA-Fc; HveA; not shown: Fc domain of human IgG1
B3: BCMA on transiently transfected cells (receptor, UniProt Q02223 1-184, looked up)
chain: MLQMAGQCSQNEYFDSLLHACIPCQLRCSSNTPPLTCQRYCNASVTNSVKGTNAILWTCLGLSLIISLAVFVLMFLLRKINSEPLKDEFKNTGSGLLGMANIDLEKSRTGDEIILPRGLEYTVEECTCEDCIKSKPKVDSDHCFPLPAMEEGATILVTTKTNDYCKSLPAALSATEIEKSISAR
notes: whole, on cells
B4: Soluble human FLAG-FasL (synthesized at HGS) (ligand)
chain: DYKDDDDKQIGHPSPPPEKKELRKVAHLTGKSNSRSMPLEWEDTYGIVLLSGVKYKKGGLVINETGLYFVYSKVYFRGQSCNNLPLSHKVYMRNSKYPQDLVMMEGKMMSYCTTGQMWARSSYLGAVFNLTSADHLYVNVSELSLVNFEESQTFFGLYKL
notes: Called trimerized in the BIAcore experiment; cross-linked with anti-FLAG antibody in the cell assays; also called FasL-Flag; trimerized FLAG-FasL

The target of test [1] is T1, Fas receptor on Jurkat or HT-29 cells (human, UniProt P25445 26-335).
T1 sequence (looked up): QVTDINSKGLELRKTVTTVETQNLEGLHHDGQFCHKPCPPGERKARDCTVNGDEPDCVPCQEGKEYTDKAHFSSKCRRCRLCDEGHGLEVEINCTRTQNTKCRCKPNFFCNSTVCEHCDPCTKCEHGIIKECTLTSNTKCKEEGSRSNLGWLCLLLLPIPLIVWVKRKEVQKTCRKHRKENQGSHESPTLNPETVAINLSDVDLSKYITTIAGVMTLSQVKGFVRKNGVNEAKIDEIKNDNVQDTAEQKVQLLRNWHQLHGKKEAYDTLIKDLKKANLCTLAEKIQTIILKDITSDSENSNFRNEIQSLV
Put plainly: cell-based or functional assay.

Test [2] has as its target T2, full length TNF-gamma-beta on the cell surface of transfected cells (human, UniProt O95150 1-251).
T2 construct: whole, on cells; also called TNF-gamma-beta expressing cells
T2 sequence (looked up): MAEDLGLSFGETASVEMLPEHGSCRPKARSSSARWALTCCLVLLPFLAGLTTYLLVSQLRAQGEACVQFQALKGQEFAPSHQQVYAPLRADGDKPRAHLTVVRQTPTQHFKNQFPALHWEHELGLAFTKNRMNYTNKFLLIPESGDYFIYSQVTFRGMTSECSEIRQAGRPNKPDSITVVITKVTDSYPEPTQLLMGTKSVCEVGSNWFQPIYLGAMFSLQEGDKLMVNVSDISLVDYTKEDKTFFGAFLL
Put plainly: flow cytometry competition; competitor DR3-Fc. How it is done:
(§1) One million cells, in 0.1 ml of FACS buffer (PBS, 0.1% BSA, 0.1% NaN₃), were incubated with 0.1-1 microgram of protein or antibody at RT for 15 min. The cells were washed with 3 ml of FACS buffer, reacted with biotinylated primary antibody, and stained with PE-conjugated secondary antibody at RT for 15 min. Cells were then washed again, resuspended in 0.5 microgram/ml of propidium iodide, and live cells were gated and analyzed on a FACScan using the CellQuest software (BD Biosciences).

Test [3] has as its target T2, full length TNF-gamma-beta on the cell …. Put plainly: flow cytometry, receptor-Fc on HEK293F cells expressing full length TNF-gamma-beta. How it is done: as §1
A general note: Flow cytometry measures light scatter and fluorescence of single cells or particles in a stream.

In test [4] the target is T3, FLAG-tagged soluble TNF-gamma-beta (aa 72-251) (human, UniProt O95150 72-251).
T3 construct: also called FLAG-TNF-gamma-beta; FLAG-TL1β
T3 sequence: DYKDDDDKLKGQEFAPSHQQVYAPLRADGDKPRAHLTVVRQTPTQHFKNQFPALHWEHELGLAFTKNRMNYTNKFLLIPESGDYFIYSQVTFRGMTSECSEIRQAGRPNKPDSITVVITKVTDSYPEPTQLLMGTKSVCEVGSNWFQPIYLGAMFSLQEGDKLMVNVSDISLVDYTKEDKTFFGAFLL
The test is described as follows: flow cytometry on transiently transfected cells. As to the method: as §1

The target of test [5] is B1. The test is described as follows: BIAcore, FasL-Flag soluble. (In SPR one partner is held on a chip, and binding of the other changes the refractive index at the surface.)
The target in test [6] is T4, TNFR6 alpha-Fc (full length TNFR-6 alpha, amino acids 1-300 of SEQ ID NO:2, fused to an Fc domain) (human, UniProt O95407 30-300).
T4 construct: Cloned as aa 1-300; disulfide-linked dimer; also called TR6-Fc; TNFR6-Fc; not shown: Fc domain of human IgG1
T4 sequence: B1 chain
The test is described as follows: BIAcore, TR6-Fc immobilized, trimerized FLAG-FasL soluble.

In test [1], “sFas ligand (Alexis Corporation) with a FLAG epitope tag at its N-terminus (from UniProt P48023 103-281)” showed a % Cells undergoing apoptosis (annexin/propidium iodide FACS, Jurkat cells), FasL (20 ng) alone (% cells undergoing apoptosis) of 8.87 and a Jurkat cell viability (ALOMAR blue, OD 570 nm-630 nm) (% decrease in cell viability) of 50.

Take B1: in test [2], the “molar ratio of TR6 to DR3-Fc at which no DR3-Fc binding was detected” value is 2 molar ratio (2:1).

As for B2, the binding result in test [3] is “no binding”.

Consider B3, for which the binding result in test [4] is given as “no binding”.

Turning to B4, the “Jurkat apoptosis (annexin staining, FACS)” value in test [1] was roughly 7 fold. Further, the values for the Kd in test [5] and in test [6] were 17 nM and 4.6 nM, respectively.
